Experimental data taken from article PMC4694995.

Target: programmed cell death 1 (PD1), endogenous in mouse CD8+ T cells (mouse (endogenous in OT-1 and C57BL/6 CD8+ T cells)) (UniProt Q02242)
Test: co-IP; Lag3-/- or Pdcd1-/- mouse CD8+ T cells retrovirally transduced with LAG3 or PD1 constructs (pMIG-II), sorted, rested in IL2, restimulated with IE9mp1 for 5 min or treated with pervanadate for 5 min; antibody-conjugated Dynal beads; Western blot, densitometry normalised to input

Chain of programmed cell death 1 (PD1), endogenous in mouse CD8+ T cells (mouse (endogenous in OT-1 and C57BL/6 CD8+ T cells)) (Q02242 25-288): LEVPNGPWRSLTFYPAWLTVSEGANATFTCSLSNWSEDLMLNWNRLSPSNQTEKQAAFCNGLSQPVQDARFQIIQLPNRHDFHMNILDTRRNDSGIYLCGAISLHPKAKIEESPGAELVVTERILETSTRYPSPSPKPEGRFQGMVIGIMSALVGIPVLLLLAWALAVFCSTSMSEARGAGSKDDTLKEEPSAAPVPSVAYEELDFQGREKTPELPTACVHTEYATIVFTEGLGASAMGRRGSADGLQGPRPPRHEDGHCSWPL
Chain of Src-homology-2 domain-containing phosphatase SHP1, endogenous in mouse CD8+ T cells, P29351 1-595 (enzyme; other documents disagree on this pair) (P29351 whole entry): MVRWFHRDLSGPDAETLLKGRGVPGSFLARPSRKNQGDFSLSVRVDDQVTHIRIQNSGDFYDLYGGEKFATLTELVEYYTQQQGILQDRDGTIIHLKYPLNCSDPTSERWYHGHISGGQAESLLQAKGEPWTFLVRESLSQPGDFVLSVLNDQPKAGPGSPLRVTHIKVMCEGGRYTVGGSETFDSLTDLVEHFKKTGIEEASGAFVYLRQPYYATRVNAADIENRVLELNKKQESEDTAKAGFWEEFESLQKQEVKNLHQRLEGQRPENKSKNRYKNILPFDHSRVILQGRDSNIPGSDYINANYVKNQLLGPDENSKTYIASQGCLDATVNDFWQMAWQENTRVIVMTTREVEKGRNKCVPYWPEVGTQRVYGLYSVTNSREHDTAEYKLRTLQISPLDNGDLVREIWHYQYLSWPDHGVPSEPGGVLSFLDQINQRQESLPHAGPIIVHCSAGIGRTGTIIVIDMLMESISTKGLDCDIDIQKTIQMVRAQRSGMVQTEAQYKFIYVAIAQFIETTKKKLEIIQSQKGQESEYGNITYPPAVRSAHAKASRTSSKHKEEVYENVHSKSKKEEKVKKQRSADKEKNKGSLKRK

Substance | amount pulled down by anti-PD1 antibody, against pLAG3 | amount pulled down by anti-PD1 antibody in cells with pΔCY, against cells with pLAG3
LAG3 lacking the cytoplasmic domain, expressed from pMIG-LAG3ΔCY in Lag3-/- CD8+ T cells (domain or fragment) | 30 % lower | –
Src-homology-2 domain-containing phosphatase SHP1, endogenous in mouse CD8+ T cells, P29351 1-595 (enzyme; other documents disagree on this pair) | – | 20 % less
